Results as given in PMC7908025 (ACS Central Science, 2021).

How the values were obtained:
[1] = target: porcine N-acyl-D-glucosamine 2-epimerase (AGE) (Sus scrofa, UniProt P17560); format: biochemical; conditions: 35 °C, 48 h
PmST1 = PmST1 (Pasteurella multocida, UniProt Q15KI8); format: biochemical
[2] = tested on: CC(=O)N[C@H]1[C@H]([C@H](F)[C@H](O)CO)O[C@@](O[C@H]2[C@@H](O)[C@@H](CO)O[C@@H](Oc3ccc4c(C)cc(=O)oc4c3)[C@@H]2O)(C(=O)O)C[C@@H]1O; assay: purified protein
[3] = tested on: CC(=O)N[C@H]1[C@H]([C@H](O)[C@H](O)CO)O[C@](OP(=O)(O)OC[C@H]2O[C@@H](n3ccc(N)nc3=O)[C@H](O)[C@@H]2O)(C(=O)O)C[C@@H]1O; assay: purified protein

Sequence of porcine N-acyl-D-glucosamine 2-epimerase (AGE) (P17560 whole entry): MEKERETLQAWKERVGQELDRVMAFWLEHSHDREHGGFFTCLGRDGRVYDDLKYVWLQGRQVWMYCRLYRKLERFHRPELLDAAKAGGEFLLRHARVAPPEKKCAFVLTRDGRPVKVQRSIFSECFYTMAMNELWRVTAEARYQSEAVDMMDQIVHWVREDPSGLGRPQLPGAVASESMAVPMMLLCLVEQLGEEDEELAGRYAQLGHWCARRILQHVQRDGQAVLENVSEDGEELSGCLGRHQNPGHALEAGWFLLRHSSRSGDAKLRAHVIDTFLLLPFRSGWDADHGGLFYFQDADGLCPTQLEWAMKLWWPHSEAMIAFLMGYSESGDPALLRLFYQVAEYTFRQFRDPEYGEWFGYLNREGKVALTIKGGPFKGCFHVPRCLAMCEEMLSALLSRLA

CC(=O)N[C@H]1C(O)O[C@H](CO)[C@H](F)[C@@H]1O (stereo partly drawn) [compound 2, 4-deoxy-4-fluoro-GalNAc]
one-pot epimerase/aldolase conversion, 19F NMR [1]: the epimerase was converting the GalNAc starting material

CC(=O)N[C@H]1[C@H]([C@H](O)[C@H](O)CO)O[C@](OP(=O)(O)OC[C@H]2O[C@@H](n3ccc(N)nc3=O)[C@H](O)[C@@H]2O)(C(=O)O)C[C@@H]1O [compound 9, CMP-7OHSA]
Km (PmST1): 89 µM

(Micromonospora viridifaciens)
Km [2]: 1.2 (±0.15) mM | kcat/Km [2]: 2250 ± 1000 M⁻¹ s⁻¹

(Photobacterium sp. JT-ISH-224)
Km [3]: 70 (±1) μM | kcat/Km [3]: 656000 M⁻¹ s⁻¹
